Data as given in patent US10450368.

What was measured:
[1] = biological target: Centromere B (UniProt P07199); test: AtheNA, Ab 25 ug/ml
[2] = biological target: Histones; test: AtheNA, Ab 25 ug/ml
[3] = biological target: Jo-1 (UniProt P12081); test: AtheNA, Ab 25 ug/ml
[4] = biological target: RNP (ribonucleoprotein); test: AtheNA, Ab 25 ug/ml
[5] = biological target: SSA; test: AtheNA, Ab 25 ug/ml
[6] = biological target: SSB (UniProt P05455); test: AtheNA, Ab 25 ug/ml
[7] = biological target: Scl-70 (UniProt P11387); test: AtheNA, Ab 25 ug/ml
Sequence of Scl-70 (P11387 whole entry): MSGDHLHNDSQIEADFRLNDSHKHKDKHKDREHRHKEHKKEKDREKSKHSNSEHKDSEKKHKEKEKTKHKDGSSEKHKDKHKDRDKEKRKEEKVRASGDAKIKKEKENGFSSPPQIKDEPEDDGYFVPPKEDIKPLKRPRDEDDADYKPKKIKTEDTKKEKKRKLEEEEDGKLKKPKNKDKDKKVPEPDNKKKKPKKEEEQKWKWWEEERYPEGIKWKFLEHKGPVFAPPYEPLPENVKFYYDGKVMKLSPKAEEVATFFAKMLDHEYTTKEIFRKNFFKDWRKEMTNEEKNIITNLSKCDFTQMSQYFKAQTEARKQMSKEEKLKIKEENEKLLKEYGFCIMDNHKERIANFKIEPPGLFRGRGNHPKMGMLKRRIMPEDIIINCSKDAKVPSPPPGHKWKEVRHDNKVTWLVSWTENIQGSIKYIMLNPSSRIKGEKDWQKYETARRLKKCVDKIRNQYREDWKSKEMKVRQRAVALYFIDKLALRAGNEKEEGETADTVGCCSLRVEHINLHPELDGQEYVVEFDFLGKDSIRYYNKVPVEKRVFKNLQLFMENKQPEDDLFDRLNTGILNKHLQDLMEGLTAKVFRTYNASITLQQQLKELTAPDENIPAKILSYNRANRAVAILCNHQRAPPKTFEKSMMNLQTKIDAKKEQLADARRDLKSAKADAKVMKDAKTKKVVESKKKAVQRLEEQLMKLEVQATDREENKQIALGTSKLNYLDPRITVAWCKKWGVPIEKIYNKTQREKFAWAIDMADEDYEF

[8] = biological target: Sm (Smith antigen); test: AtheNA, Ab 25 ug/ml
[9] = biological target: Centromere B (UniProt P07199); test: AtheNA, Ab 50 ug/ml
[10] = biological target: Histones; test: AtheNA, Ab 50 ug/ml
[11] = biological target: Jo-1 (UniProt P12081); test: AtheNA, Ab 50 ug/ml
[12] = biological target: RNP (ribonucleoprotein); test: AtheNA, Ab 50 ug/ml
[13] = biological target: SSA; test: AtheNA, Ab 50 ug/ml
[14] = biological target: SSB (UniProt P05455); test: AtheNA, Ab 50 ug/ml
[15] = biological target: Scl-70 (UniProt P11387); test: AtheNA, Ab 50 ug/ml
[16] = biological target: Sm (Smith antigen); test: AtheNA, Ab 50 ug/ml
[17] = biological target: Centromere B (UniProt P07199); test: AtheNA, Ab 12.5 ug/ml
[18] = biological target: Histones; test: AtheNA, Ab 12.5 ug/ml
[19] = biological target: Jo-1 (UniProt P12081); test: AtheNA, Ab 12.5 ug/ml
[20] = biological target: RNP (ribonucleoprotein); test: AtheNA, Ab 12.5 ug/ml
[21] = biological target: SSA; test: AtheNA, Ab 12.5 ug/ml
[22] = biological target: SSB (UniProt P05455); test: AtheNA, Ab 12.5 ug/ml
[23] = biological target: Scl-70 (UniProt P11387); test: AtheNA, Ab 12.5 ug/ml
[24] = biological target: Sm (Smith antigen); test: AtheNA, Ab 12.5 ug/ml
[25] = biological target: Centromere B (UniProt P07199); test: AtheNA, Ab 6.25 ug/ml
[26] = biological target: Histones; test: AtheNA, Ab 6.25 ug/ml
[27] = biological target: Jo-1 (UniProt P12081); test: AtheNA, Ab 6.25 ug/ml
[28] = biological target: RNP (ribonucleoprotein); test: AtheNA, Ab 6.25 ug/ml
[29] = biological target: SSA; test: AtheNA, Ab 6.25 ug/ml
[30] = biological target: SSB (UniProt P05455); test: AtheNA, Ab 6.25 ug/ml
[31] = biological target: Scl-70 (UniProt P11387); test: AtheNA, Ab 6.25 ug/ml
[32] = biological target: Sm (Smith antigen); test: AtheNA, Ab 6.25 ug/ml

Measured: AtheNA signal

Sequence of Centromere B (P07199 whole entry): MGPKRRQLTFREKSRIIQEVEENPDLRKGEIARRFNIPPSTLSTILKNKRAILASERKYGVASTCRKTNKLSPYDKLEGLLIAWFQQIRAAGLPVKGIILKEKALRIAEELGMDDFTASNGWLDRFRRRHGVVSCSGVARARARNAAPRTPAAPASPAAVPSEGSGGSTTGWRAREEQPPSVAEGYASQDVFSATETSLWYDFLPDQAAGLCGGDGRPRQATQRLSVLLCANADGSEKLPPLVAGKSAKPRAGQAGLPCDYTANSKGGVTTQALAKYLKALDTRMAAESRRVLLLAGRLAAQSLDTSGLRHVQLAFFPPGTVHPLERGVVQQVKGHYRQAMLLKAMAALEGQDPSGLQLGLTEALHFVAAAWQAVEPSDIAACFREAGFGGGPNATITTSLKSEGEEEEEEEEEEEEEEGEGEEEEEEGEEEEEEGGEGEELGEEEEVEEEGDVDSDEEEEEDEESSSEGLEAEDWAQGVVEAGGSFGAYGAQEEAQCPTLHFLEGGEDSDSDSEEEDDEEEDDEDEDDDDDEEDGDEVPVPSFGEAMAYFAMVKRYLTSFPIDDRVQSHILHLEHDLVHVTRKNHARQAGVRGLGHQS
Sequence of Jo-1 (P12081 whole entry): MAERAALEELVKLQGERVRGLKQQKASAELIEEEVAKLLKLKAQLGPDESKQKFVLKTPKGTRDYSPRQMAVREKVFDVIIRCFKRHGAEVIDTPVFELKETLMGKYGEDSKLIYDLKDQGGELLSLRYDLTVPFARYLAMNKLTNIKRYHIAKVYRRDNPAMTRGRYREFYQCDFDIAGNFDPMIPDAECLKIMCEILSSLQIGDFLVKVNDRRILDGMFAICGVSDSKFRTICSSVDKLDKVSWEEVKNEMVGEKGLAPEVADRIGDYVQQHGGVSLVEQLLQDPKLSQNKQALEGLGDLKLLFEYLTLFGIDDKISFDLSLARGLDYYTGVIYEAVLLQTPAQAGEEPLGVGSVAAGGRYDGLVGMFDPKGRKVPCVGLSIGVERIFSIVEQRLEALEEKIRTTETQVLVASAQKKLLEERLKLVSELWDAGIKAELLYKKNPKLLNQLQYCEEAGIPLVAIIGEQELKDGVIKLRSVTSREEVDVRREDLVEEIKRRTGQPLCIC
Sequence of SSB (P05455 whole entry): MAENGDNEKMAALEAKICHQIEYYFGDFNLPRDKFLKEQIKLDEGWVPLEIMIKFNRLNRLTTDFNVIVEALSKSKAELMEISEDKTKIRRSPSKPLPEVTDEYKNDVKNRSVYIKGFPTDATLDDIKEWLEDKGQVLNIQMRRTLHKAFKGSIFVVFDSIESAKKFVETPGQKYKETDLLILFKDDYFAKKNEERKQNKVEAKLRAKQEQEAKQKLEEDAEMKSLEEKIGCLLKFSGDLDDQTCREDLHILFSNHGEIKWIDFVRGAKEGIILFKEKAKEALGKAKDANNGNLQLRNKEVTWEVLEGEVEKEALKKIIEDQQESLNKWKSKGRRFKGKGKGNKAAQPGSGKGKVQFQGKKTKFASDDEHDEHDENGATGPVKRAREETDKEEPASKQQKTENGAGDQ

DH270IA1 (antibody)
1: [7] | [30]
2: [4] | [12] | [23] | [25] | [26] | [28] | [31]
9: [10]
6: [6] | [14] | [19] | [22]
4: [2] | [15] | [18]
10: [9]
3: [3] | [5] | [17] | [20] | [21] | [32]
5: all other assays above
